Results: US10456446B2, “Use of human small leucine zipper protein in osteogenesis procedure” (Korea University Research and Business Foundation, priority 2013, dated 2019)
“Also recorded” adds a separate entry of the source.

Test system: PPARγ2
Assay: GST / His pull-down and immunoprecipitation of sLZIP with PPARγ2
Format: binding
Experimental: 293T cells were obtained and washed with cold PBS. The cells were re-suspended in an IP lysis buffer [25 mM of Tris-HCl (pH 7.4), 150 mM of NaCl, 1 mM of EDTA, 1% NP-40 and 5% glycerol, and a protease inhibitor]. A suspension was centrifuged at 16,000×g for 20 minutes at 4° C. Supernatants were collected and incubated with 0.5 μg of appropriate antibodies and 25 μl of protein A/G-agarose or a GST Sepharose 4B bead for 24 hours at 4° C. A protein complex was centrifuged at 1,000×g with a cold IP lysis buffer for 1 minute and washed five times. The final pellet was re-suspended in 50 μl of an SDS-sample buffer containing 5% β-mercaptoethanol and heated for 10 minutes at 100° C. A protein sample was isolated in SDS-PAGE (8 to 10%) and transferred to nitrocellulose membranes. Co-precipitated proteins were detected according to western blotting using specific antibodies.
In order to examine whether the transcriptional activity of PPARγ2 is regulated by interaction with sLZIP, interaction between sLZIP and PPARγ2 was examined. For this purpose, 293T cells were transfected with GST-sLZIP and Myc-PPARγ2. Cell lysates were obtained and GST pull-down analysis was performed using a glutathione 4B bead. A protein complex was analyzed in SDS-PAGE and then immunoblotted with specific antibodies (FIG. 2A). The 293T cells were transfected with GST-PPARγ2 and Flag-sLZIP, and identified according to GST-pull-down analysis (FIG. 2B). PPARγ2 was translated in vitro by a TNT translation system (Promega). His-sLZIP proteins were expressed in BL21 cells using an IPTG-inducement system. Purified His-sLZIP proteins were subjected to His pull-down analysis. Proteins bound to the bead were analyzed in SDS-PAGE, and then immunoblotted with anti-PPARγ2 and anti-His antibodies (FIG. 2C). GFP-PPARγ2 and Flag-sLZIP constructs were expressed in C3H10T1/2 cells, and analyzed using mouse anti-Flag and Texas Red-labeled anti-mouse antibodies under a fluorescence microscope. The nucleus was stained with DAPI (FIG. 2D).
Activation of many nuclear receptors depends on a supplement of coactivators. Therefore, a domain of sLZIP necessary for binding with PPARγ2 was examined. For this purpose, 293T cells were transfected with GST-full length sLZIP (1-354), N-terminal deletion mutant sLZIP (1-228), C-terminal deletion mutant sLZIP (229-354), CC-terminal deletion mutant sLZIP (297-354) and PPARγ2. Cell lysates were obtained and GST pull-down analysis was performed using a glutathione 4B bead. A protein complex was analyzed in SDS-PAGE, and then immunoblotted with specific antibodies (FIG. 3A). 293T cells were transfected with Flag-full length PPARγ2, full length PPARγ2, N-terminal deletion mutant PPARγ2 (1-310), C-terminal deletion mutants PPARγ2 (139-505) and GST-sLZIP. Cell lysates were obtained and GST pull-down analysis was performed. A protein complex was analyzed in SDS-PAGE, and then immunoblotted with anti-GST and anti-Flag antibodies (FIG. 3B).
For this purpose, 293T cells were transfected with GST-PPARγ2 and Flag-sLZIP and were treated or not treated with 10 nM of RZD for 24 hours. Cell lysates were obtained and GST pull-down analysis (FIG. 5A) and immunoprecipitation (FIG. 5B) were performed using a glutathione 4B bead. A protein complex was analyzed in SDS-PAGE, and immunoblotted with anti-GST and anti-Flag antibodies. GST-PARγ2 and Flag-sLZIP were expressed in the 293T cells, and the cells were treated with 10 nM of RZD according to time of day. The cell lysates were GST pull-down analyzed (FIG. 5C). 293T cells were transfected with GST-HDAC3 and Flag-sLZIP, and treated or not treated with 10 nM of RZD for 24 hours. The cell lysates were GST pull-down analyzed (FIG. 5D). Flag-sLZIP was expressed in the 293T cells, and the cells were treated with 10 nM of RZD for 24 hours. Immunoprecipitation analysis of the cell lysates was performed using anti-NCoR1 antibodies. […]

[1] = GST pull-down, transfected 293T cells

B1: N domains of sLZIP: N-terminal deletion mutant of sLZIP (1-228) (protein)
chain: MELELDAGDQDLLAFLLEESGDLGTAPDEAVRAPLDWALPLSEVPSDWEVDDLLCSLLSPPASLNILSSSNPCLVHHDHTYSLPRETVSMDLESESCRKEGTQMTPQHMEELAEQEIARLVLTDEEKSLLEKEGLILPETLPLTKTEEQILKRVRRKIRNKRSAQESRRKKKVYVGGLESRVLKYTAQNMELQNKVQLLEEQNLSLLDQLRKLQAMVIEISNKTSSSS
modifications: left off: a dimerising Fc or GST
- interaction with PPARγ2 [1]: not interacted with PPARγ2

B2: sLZIP: human small leucine-zipper protein, isoform of LZIP, 354 amino acids, no transmembrane domain, GenBank FJ263669, SEQ ID NO: 1 (protein, listed as Homo sapiens)
chain: MELELDAGDQDLLAFLLEESGDLGTAPDEAVRAPLDWALPLSEVPSDWEVDDLLCSLLSPPASLNILSSSNPCLVHHDHTYSLPRETVSMDLESESCRKEGTQMTPQHMEELAEQEIARLVLTDEEKSLLEKEGLILPETLPLTKTEEQILKRVRRKIRNKRSAQESRRKKKVYVGGLESRVLKYTAQNMELQNKVQLLEEQNLSLLDQLRKLQAMVIEISNKTSSSSMYSSDTRGSLPAEHGVLSRQLRALPSEDPYQLELPALQSEVPKDSTHQWLDGSDCVLQAPGNTSCLLHYMPQAPSAEPPLEWPFPDLFSEPLCRGPILPLQANLTRKGGWLPTGSPSVILQDRYSG
- interaction with PPARγ2 [1]: PPARγ2 interacted with sLZIP
- interaction with PPARγ2 (GST pull-down, transfected 293T cells, listed as wild type sLZIP): interacted with PPARγ2
- direct interaction with PPARγ2 (His pull-down, purified His-sLZIP and in vitro translated PPARγ2): directly bound
- interaction with PPARγ2 (ligand treated (10 nM RZD), GST pull-down or immunoprecipitation): dissociated from sLZIP; also recorded: dissociated from PPARγ2 in a time-dependent manner
- interaction with PPARγ2 (no stimulation with a ligand, GST pull-down): interacted with PPARγ2
